Reference: patent US20220089678A1 (CARTESIAN THERAPEUTICS, published 2022)

T1: phycoerythrin (PE)-conjugated BCMA (Recombinant Human TNFRSF17 protein, Fc/His-tagged, R-PE labeled); Creative … (human, UniProt Q02223 1-54, R-PE labeled)
T1 construct: Bought reagent; also called BCMA-PE; not shown: Fc/His tag of the bought reagent
T1 sequence: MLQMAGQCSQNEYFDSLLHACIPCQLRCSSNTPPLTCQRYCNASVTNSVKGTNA


The binders below were run against T1, phycoerythrin (PE)-conjugated BCMA … (assay: flow cytometry; CAR T cells stained with BCMA-PE, 3 days after electroporation).
Procedure: CAR T cells obtained from the above-described process were tested for viability, CAR protein expression, BCMA binding, and cytotoxicity, i.e., the ability to kill BCMA+ myeloma (tumor) cells. Viability, CAR expression, and BCMA binding were determined by flow cytometry on a GUAVA® […]® 12HT Flow cytometer (EMD Millipore). To test viability, a sample of the CAR T cells was mixed with propidium iodide and run on the flow cytometer with electronic gating on fluorescence in the near infrared channel. To test CAR protein expression and BCMA binding, a sample of the CAR T cells was incubated with 0.4 ug/mL of phycoerythrin (PE)-conjugated BCMA (Recombinant Human TNFRSF17 protein, Fc/His-tagged, R-PE labeled; Creative Biomart, Shirley, N.Y.). CAR expression was assessed on the flow cytometer with electronic gating on fluorescence in the yellow channel to detect presence or absence of emission from BCMA-PE on CAR-positive and CAR-negative cells. BCMA binding was determined by measuring the intensity of fluorescence in the yellow channel to determine the relative quantity of BCMA-PE bound to labelled CAR-positive cells. For the viability, expression, and BCMA binding assays, CD8+ T cells electroporated without mRNA (CAR-negative T Cells) were tested as a parallel control.
Numerous CAR-encoding mRNA constructs were prepared using the mRNA construct of SEQ ID: 29 as a starting point (which encodes a CAR of sequence SEQ ID: 19 and comprises the scFv of sequence SEQ ID: 48). These constructs encoded the same or substantially the same amino acid residues in the scFv complementary-determining regions (CDRs) but varied with respect to the amino acid residues in the scFv framework regions. In making these variations, the experimenter's intent was to humanize the scFv framework regions without reducing BCMA-binding and tumor-killing properties of CAR T cells that express the CAR. For each of the mRNA constructs, CAR T cells were prepared by transfection into human CD8+ cells, substantially as described in Example 1. The CAR T cells made from each mRNA construct were then tested 3 days after electroporation for BCMA binding and/or tumor killing, as substantially described in Example 1.

| Binder | BCMA Binding (relative to SEQ ID: 48) | BCMA Binding (relative to SEQ ID: 54) |
| --- | --- | --- |
| CAR comprising scFv-J2 (SEQ ID NO: 50) (other, CAR on mRNA-electroporated human CD8+ T cells; Only the scFv is identified; not shown: rest of the CAR (hinge, transmembrane, cytoplasmic domains) not specified for this construct) DIVLTQSPASLAVSLGERATISCRASESVSILGSHLLHWYQQKPGQPPKLLIYLASNLQTGVPARFSGSGSGTDFTLTISSLEAEDVAVYYCLQSRTIPRTFGQGTKLEIKGSTSGSGKPGSGEGSTKGQIQLVQSGAEVKKPGASVKISCKASGYTFTDYSINWVRQAPGQGLEWMGWINTETREPAYAYDFRGRVTMTRDTSASTAYLQISSLKAEDTAVYFCALDYSYAMDYWGQGSLVTVSS | 51 relative to SEQ ID: 48 = 100 | – |
| CAR comprising scFv-J3 (SEQ ID NO: 51) (other, CAR on mRNA-electroporated human CD8+ T cells; Only the scFv is identified; not shown: rest of the CAR (hinge, transmembrane, cytoplasmic domains) not specified for this construct) DIVLTQSPASLAVSLGKRATISCRASESVTILGSHLIHWYQQKPGQPPKLLIYLASNVQTGVPARFSGSGSGTDFTLTISSLEAEDVAVYYCLQSRTIPRTFGQGTKLEIKGSTSGSGKPGSGEGSTKGQVQLVQSGAEVKKPGASVKISCKASGYTFTDYSINWVRQAPGQGLEWMGWINTETREPAYAYDFRGRVTMTRDTSASTAYLQISSLKAEDTAVYFCALDYSYAMDYWGQGSLVTVSS | 54 relative to SEQ ID: 48 = 100 | – |
| CAR comprising scFv-J5 (SEQ ID NO: 53) (other, CAR on mRNA-electroporated human CD8+ T cells; Only the scFv is identified; not shown: rest of the CAR (hinge, transmembrane, cytoplasmic domains) not specified for this construct) DIVLTQSPASLAVSLGERATISCRASESVSILGSHYLAWYQQKPGQPPKLLIYLASNLQTGVPARFSGSGSGTDFTLTISSLEAEDVAVYYCQQSRTIPRTFGQGTKLEIKGSTSGSGKPGSGEGSTKGQIQLVQSGAEVKKPGESVKISCKASGYTFTDYSINWVRQAPGQGLKWMGWINTETREPAYAYDFRGRFAFSLDTSASTAYLQISSLKAEDTAVYFCALDYSYAMDYWGQGTLVTVSS | 103 relative to SEQ ID: 48 = 100 | – |
| CAR comprising scFv-J1 (SEQ ID NO: 49) (other, CAR on mRNA-electroporated human CD8+ T cells; Only the scFv is identified; not shown: rest of the CAR (hinge, transmembrane, cytoplasmic domains) not specified for this construct) DIVMTQSPDSLSVSLGERATINCRASESVTILGSHLIHWYQQKPGQPPKLLIQLASNVQTGVPDRFSGSGSGTDFTLTISSLQAEDVAVYYCLQSRTIPRTFGGGTKVEIKGSTSGSGKPGSGEGSTKGQIQLVQSGAEVKKPGASVKISCKASGYTFTDYSINWVRQAPGQGLEWMGWINTETREPAYAYDFRGRVTMTRDTSASTAYLQISSLKAEDTAVYFCALDYSYAMDYWGQGSLVTVSS | 76 relative to SEQ ID: 48 = 100 | – |
| CAR comprising scFv-Y31 (SEQ ID NO: 56) (other, CAR on mRNA-electroporated human CD8+ T cells; Only the scFv is identified; not shown: rest of the CAR (hinge, transmembrane, cytoplasmic domains) not specified for this construct) DIVLTQSPSSLSASVGDRATISCRASESVTILGSHLIHWYQQKPGQAPKLLIQLASNVQTGVPARFSGSGSGTDFTLTISSVEPEDVAVYYCLQSRTIPRTFGQGTKVEIKGSTSGSGKPGSGEGSTKGQIQLVQSGPELKKPGGSVKISCAASGYTFTDYSINWVKQAPGKGLEWVGWINTETREPAYAYDFRGRFTFSADTSKSTAYLQMNSLRAEDTAVYYCALDYSYAMDYWGQGTLVTVSS | – | 58 relative to SEQ ID: 54 = 100 |
| CAR comprising scFv-Y33 (SEQ ID NO: 58) (other, CAR on mRNA-electroporated human CD8+ T cells; Only the scFv is identified; not shown: rest of the CAR (hinge, transmembrane, cytoplasmic domains) not specified for this construct) DIVLTQSPSSLSASVGDRATISCRASESVTILGSHLIHWYQQKPGQAPKLLIQLASNVQTGVPARFSGSGSGTDFTLTISSVEPEDVAVYYCLQSRTIPRTFGQGTKVEIKGSTSGSGKPGSGEGSTKGQIQLVESGAEVKKPGGSVKISCAASGYTFTDYSINWVKQAPGKGLEWVGWINTETREPAYAYDFRGRFTFSLDTSKSTAYLQMNSLRAEDTAVYYCALDYSYAMDYWGQGTLVTVSS | – | 40 relative to SEQ ID: 54 = 100 |
| CAR comprising scFv-Y34 (SEQ ID NO: 59) (other, CAR on mRNA-electroporated human CD8+ T cells; Only the scFv is identified; not shown: rest of the CAR (hinge, transmembrane, cytoplasmic domains) not specified for this construct) DIVLTQSPSSLSASVGDRATISCRASESVTILGSHLIHWYQQKPGQAPKLLIQLASNVQTGVPARFSGSGSGTDFTLTISSVEPEDVAVYYCLQSRTIPRTFGQGTKVEIKGSTSGSGKPGSGEGSTKGQIQLVESGAEVKKPGGSVKVSCKASGYTFTDYSINWVRQAPGKGLEWVGWINTETREPAYAYDFRGRFAISAETSKSTAYLQMNSLRAEDTAVYYCALDYSYAMDYWGQGTLVTVSS | – | 79 relative to SEQ ID: 54 = 100 |
| CAR comprising scFv-Yi1 (SEQ ID NO: 54) (other, CAR on mRNA-electroporated human CD8+ T cells; not shown: rest of the CAR (hinge, transmembrane, cytoplasmic domains) not specified for this construct) DIVLTQSPSSLSASVGDRATISCRASESVTILGSHLIHWYQQKPGQAPKLLIQLASNVQTGVPARFSGSGSGTDFTLTISSVEPDDVAVYYCLQSRTIPRTFGGGTKLEIKGSTSGSGKPGSGEGSTKGQIQLVQSGPELKKPGGSVKISCAASGYTFTDYSINWVKQAPGKGLEWVGWINTETREPAYAYDFRGRFTFSLDTSKSTAYLQMNSLRAEDTAVYYCALDYSYAMDYWGQGTLVTVSS | 141 relative to SEQ ID: 48 = 100 | 100 relative to SEQ ID: 54 = 100 |
